Data as given in publication PMC11969024 (2025).

B1: peptide HD2 (from tick evasin EVA4) / CXCL11 (biotinylated, synthetic) (parent complex)
chain 1: EEDDYTAYAPLTCYFT
chain 2: FPMFKRGRCLCIGPGVKAVKVADIEKASIMYPSNNCDKIEVIITLKENKGQRCLNPKSKQARLIIKKVERKNF

Variants of: B1

Compared with chain 1 ETDDYTAYAPLTCYFT, chain 1 ESDDYTAYAPLTCYFT is higher in enrichment: -4.37 log2 (difference from the parental peptide) for the first, -2.62 log2 (difference from the parental peptide) for the second.

Compared with chain 1 EMDDYTAYAPLTCYFT, chain 1 EHDDYTAYAPLTCYFT is lower in enrichment: 0.915 log2 (difference from the parental peptide) for the first, -4.78 log2 (difference from the parental peptide) for the second.

First: chain 1 EEDDYTAYAPLTVYFT
Second: chain 1 EEDDYTAYAPLTAYFT
The enrichment of the first is higher: -1.39 log2 (difference from the parental peptide) for the first, -5.18 log2 (difference from the parental peptide) for the second.

Going from chain 1 EEDDYTAYAPLTEYFT to chain 1 EEDDYTAYAPLTFYFT, the enrichment falls from -5.07 log2 (difference from the parental peptide) to -5.76 log2 (difference from the parental peptide).

Going from chain 1 EEDDYTAYAPLTMYFT to chain 1 EEDDYTAYAPLTCYMT, the enrichment rises from -6.65 log2 (difference from the parental peptide) to -0.451 log2 (difference from the parental peptide).

Going from chain 1 EEDDYTAYAPLTCYLT to chain 1 EEDDYTAYAPLTCYYT, the enrichment rises from -2.87 log2 (difference from the parental peptide) to 0.592 log2 (difference from the parental peptide).

Compared with chain 1 EEDDYTAYAPLTCYTT, chain 1 EEDDYTAYAPLTCYET is lower in enrichment: -0.0704 log2 (difference from the parental peptide) for the first, -6.06 log2 (difference from the parental peptide) for the second.

Going from chain 1 EEDDYTAYAPLTCYCT to chain 1 EEDDYTAYAPLTCYRT, the enrichment falls from 0.343 log2 (difference from the parental peptide) to -4.18 log2 (difference from the parental peptide).

First: chain 1 EEDDYTAYAPLTCYST
Second: chain 1 EEDDYTAYAPLTCYGT
The enrichment of the first is higher: -1.86 log2 (difference from the parental peptide) for the first, -4.79 log2 (difference from the parental peptide) for the second.

Compared with chain 1 EEWDYTAYAPLTCYFT, chain 1 EENDYTAYAPLTCYFT is lower in enrichment: 0.263 log2 (difference from the parental peptide) for the first, -0.358 log2 (difference from the parental peptide) for the second.

Going from chain 1 EEFDYTAYAPLTCYFT to chain 1 EEYDYTAYAPLTCYFT, the enrichment rises from -3.31 log2 (difference from the parental peptide) to -1.43 log2 (difference from the parental peptide).

Compared with chain 1 EESDYTAYAPLTCYFT, chain 1 EEDDYTAYAPLTCYFL is higher in enrichment: -4.11 log2 (difference from the parental peptide) for the first, 0.663 log2 (difference from the parental peptide) for the second.

First: chain 1 EEDDYTAYAPLTCYFV
Second: chain 1 EEDDYTAYAPLTCYFY
The enrichment of the first is higher: -2.73 log2 (difference from the parental peptide) for the first, -3.28 log2 (difference from the parental peptide) for the second.

Compared with chain 1 EEDDYTAYAPLTCYFP, chain 1 EEDDYTAYAPLTCYFC is higher in enrichment: 0.438 log2 (difference from the parental peptide) for the first, 2.71 log2 (difference from the parental peptide) for the second.

Compared with chain 1 EEDDYTAYAPLTCYFS, chain 1 EEDDYTAYAPLTCYFQ is lower in enrichment: 0.254 log2 (difference from the parental peptide) for the first, -2.38 log2 (difference from the parental peptide) for the second.

First: chain 1 EEDDYTAYAPLTCYFE
Second: chain 1 EEDDYTAYAPLTCYFI
The enrichment of the first is higher: 1.12 log2 (difference from the parental peptide) for the first, 0.577 log2 (difference from the parental peptide) for the second.

First: chain 1 EEDDYTAYAPLTCYFM
Second: chain 1 EEDDYTMYAPLTCYFT
The enrichment of the first is lower: -0.985 log2 (difference from the parental peptide) for the first, 1.69 log2 (difference from the parental peptide) for the second.

Going from chain 1 EEDDYTSYAPLTCYFT to chain 1 EEDDYTHYAPLTCYFT, the enrichment falls from 0.213 log2 (difference from the parental peptide) to -1.06 log2 (difference from the parental peptide).

First: chain 1 EEDDYTNYAPLTCYFT
Second: chain 1 EEDDYTEYAPLTCYFT
The enrichment of the first is higher: 1.13 log2 (difference from the parental peptide) for the first, -0.399 log2 (difference from the parental peptide) for the second.

First: chain 1 EEDDYTDYAPLTCYFT
Second: chain 1 EEDDYTQYAPLTCYFT
The enrichment of the first is lower: 2.88 log2 (difference from the parental peptide) for the first, 3.76 log2 (difference from the parental peptide) for the second.

Compared with chain 1 EEDDYTLYAPLTCYFT, chain 1 EEDDYTFYAPLTCYFT is higher in enrichment: 0.413 log2 (difference from the parental peptide) for the first, 1.43 log2 (difference from the parental peptide) for the second.

Going from chain 1 EEDDYTAYMPLTCYFT to chain 1 EEDDYTAYEPLTCYFT, the enrichment rises from -0.281 log2 (difference from the parental peptide) to 2.26 log2 (difference from the parental peptide).

Going from chain 1 EEDDYTAYLPLTCYFT to chain 1 EEDDYTAYHPLTCYFT, the enrichment falls from -2.33 log2 (difference from the parental peptide) to -5.35 log2 (difference from the parental peptide).

First: chain 1 EEDDYTAYNPLTCYFT
Second: chain 1 EEDDYTAYWPLTCYFT
The enrichment of the first is lower: -2.99 log2 (difference from the parental peptide) for the first, 5.42 log2 (difference from the parental peptide) for the second.

Going from chain 1 EEDDYTAYQPLTCYFT to chain 1 EEDDYTAYIPLTCYFT, the enrichment falls from 0.165 log2 (difference from the parental peptide) to -4.81 log2 (difference from the parental peptide).

Going from chain 1 EEDDYTAYRPLTCYFT to chain 1 EEDDYTAYTPLTCYFT, the enrichment rises from -1.01 log2 (difference from the parental peptide) to 1.25 log2 (difference from the parental peptide).

Going from chain 1 EEDDYTAYAPLTCCFT to chain 1 EEDDYTAYAPLTCFFT, the enrichment rises from -3.13 log2 (difference from the parental peptide) to 0.796 log2 (difference from the parental peptide).

Compared with chain 1 EEDDYTAYAPLTCTFT, chain 1 EEDDYTAYAPLACYFT is higher in enrichment: -5.08 log2 (difference from the parental peptide) for the first, -4.34 log2 (difference from the parental peptide) for the second.

Going from chain 1 EEDDYTAYAPLFCYFT to chain 1 EEDDYTAYAPLVCYFT, the enrichment rises from -2.38 log2 (difference from the parental peptide) to 1.82 log2 (difference from the parental peptide).

First: chain 1 EEDDYTAYAPLHCYFT
Second: chain 1 EEDDYTAYAPLQCYFT
The enrichment of the first is higher: -2.7 log2 (difference from the parental peptide) for the first, -3.76 log2 (difference from the parental peptide) for the second.

Going from chain 1 EEDDYTAYAPLECYFT to chain 1 EEDDYTAYAPLWCYFT, the enrichment rises from -0.922 log2 (difference from the parental peptide) to 0.223 log2 (difference from the parental peptide).

First: chain 1 EEDDYTAYAPLICYFT
Second: chain 1 EEDDYTAYAPLMCYFT
The enrichment of the first is lower: 0.0621 log2 (difference from the parental peptide) for the first, 0.317 log2 (difference from the parental peptide) for the second.

Going from chain 1 EEDDYGAYAPLTCYFT to chain 1 EEDDYRAYAPLTCYFT, the enrichment falls from 4.62 log2 (difference from the parental peptide) to 0.535 log2 (difference from the parental peptide).

First: chain 1 EEDDYSAYAPLTCYFT
Second: chain 1 EEDDYQAYAPLTCYFT
The enrichment of the first is higher: 1.57 log2 (difference from the parental peptide) for the first, -2.01 log2 (difference from the parental peptide) for the second.

Compared with chain 1 EEDDYAAYAPLTCYFT, chain 1 EEDDYHAYAPLTCYFT is lower in enrichment: 1.82 log2 (difference from the parental peptide) for the first, -0.342 log2 (difference from the parental peptide) for the second.

Compared with chain 1 EEDDYCAYAPLTCYFT, chain 1 EEDDYWAYAPLTCYFT is higher in enrichment: -5.45 log2 (difference from the parental peptide) for the first, 9.7 log2 (difference from the parental peptide) for the second.

First: chain 1 EEDDYDAYAPLTCYFT
Second: chain 1 EEDDYFAYAPLTCYFT
The enrichment of the first is lower: 3.67 log2 (difference from the parental peptide) for the first, 4.5 log2 (difference from the parental peptide) for the second.

First: chain 1 EEDDYYAYAPLTCYFT
Second: chain 1 EEDDYIAYAPLTCYFT
The enrichment of the first is higher: 3.68 log2 (difference from the parental peptide) for the first, -0.429 log2 (difference from the parental peptide) for the second.

First: chain 1 EEDDYPAYAPLTCYFT
Second: chain 1 EEDDYTAYALLTCYFT
The enrichment of the first is higher: 1.34 log2 (difference from the parental peptide) for the first, -1.17 log2 (difference from the parental peptide) for the second.

Compared with chain 1 EEDDYTAYAMLTCYFT, chain 1 EEDDYTAYASLTCYFT is higher in enrichment: -4.64 log2 (difference from the parental peptide) for the first, -1.81 log2 (difference from the parental peptide) for the second.

Compared with chain 1 EEDDYTAYAELTCYFT, chain 1 EEDDYTAYADLTCYFT is higher in enrichment: -3.45 log2 (difference from the parental peptide) for the first, 8.22 log2 (difference from the parental peptide) for the second.

Compared with chain 1 EEDDYTAYAILTCYFT, chain 1 EEDDYTAYAVLTCYFT is lower in enrichment: -0.366 log2 (difference from the parental peptide) for the first, -5.93 log2 (difference from the parental peptide) for the second.

First: chain 1 EEDIYTAYAPLTCYFT
Second: chain 1 EEDLYTAYAPLTCYFT
The enrichment of the first is lower: -4.93 log2 (difference from the parental peptide) for the first, -4.01 log2 (difference from the parental peptide) for the second.

Compared with chain 1 EEDWYTAYAPLTCYFT, chain 1 EEDPYTAYAPLTCYFT is higher in enrichment: -2.72 log2 (difference from the parental peptide) for the first, 0.748 log2 (difference from the parental peptide) for the second.

Compared with chain 1 EEDMYTAYAPLTCYFT, chain 1 EEDFYTAYAPLTCYFT is higher in enrichment: -5.76 log2 (difference from the parental peptide) for the first, -5.51 log2 (difference from the parental peptide) for the second.

Going from chain 1 YEDDYTAYAPLTCYFT to chain 1 NEDDYTAYAPLTCYFT, the enrichment falls from 1.69 log2 (difference from the parental peptide) to -4.13 log2 (difference from the parental peptide).

Going from chain 1 IEDDYTAYAPLTCYFT to chain 1 LEDDYTAYAPLTCYFT, the enrichment falls from 0.804 log2 (difference from the parental peptide) to -0.107 log2 (difference from the parental peptide).

Going from chain 1 PEDDYTAYAPLTCYFT to chain 1 EEDDYTAYAPTTCYFT, the enrichment rises from -4.68 log2 (difference from the parental peptide) to -1.48 log2 (difference from the parental peptide).

First: chain 1 EEDDYTAYAPATCYFT
Second: chain 1 EEDDYTAYAPCTCYFT
The enrichment of the first is higher: -1.47 log2 (difference from the parental peptide) for the first, -2.08 log2 (difference from the parental peptide) for the second.

First: chain 1 EEDDYTAYAPMTCYFT
Second: chain 1 EEDDYTAYAPPTCYFT
The enrichment of the first is higher: 2.73 log2 (difference from the parental peptide) for the first, -5.24 log2 (difference from the parental peptide) for the second.

Compared with chain 1 EEDDYTAYAPHTCYFT, chain 1 EEDDYTAYAPRTCYFT is lower in enrichment: 0.15 log2 (difference from the parental peptide) for the first, -3.19 log2 (difference from the parental peptide) for the second.

Compared with chain 1 EEDDYTAYAPDTCYFT, chain 1 EEDDNTAYAPLTCYFT is higher in enrichment: -5.22 log2 (difference from the parental peptide) for the first, -4.84 log2 (difference from the parental peptide) for the second.

Going from chain 1 EEDDWTAYAPLTCYFT to chain 1 EEDDITAYAPLTCYFT, the enrichment falls from 5.39 log2 (difference from the parental peptide) to -1.31 log2 (difference from the parental peptide).

Going from chain 1 EEDDYTAHAPLTCYFT to chain 1 EEDDYTANAPLTCYFT, the enrichment rises from -4.71 log2 (difference from the parental peptide) to 0.757 log2 (difference from the parental peptide).

Going from chain 1 EEDDYTADAPLTCYFT to chain 1 EEDDYTASAPLTCYFT, the enrichment rises from -3.68 log2 (difference from the parental peptide) to -2.63 log2 (difference from the parental peptide).

Going from chain 1 EEDDYTAIAPLTCYFT to chain 1 EEDDYTAFAPLTCYFT, the enrichment rises from -0.997 log2 (difference from the parental peptide) to 0.146 log2 (difference from the parental peptide).
